Results published in doi:10.1101/2025.05.28.656676 (bioRxiv, 2025).

B1: MBP-tagged glucocorticoid receptor ligand-binding domain (MBP-GR LBD, F602S, 520-777) (domain or fragment, UniProt P04150 520-777, looked up)
chain: IVPATLPQLTPTLVSLLEVIEPEVLYAGYDSSVPDSTWRIMTTLNMLGGRQVIAAVKWAKAIPGFRNLHLDDQMTLLQYSWMSLMAFALGWRSYRQSSANLLCFAPDLIINEQRMTLPCMYDQCKHMLYVSSELHRLQVSYEEYLCMKTLLLLSSVPKDGLKSQELFDEIRMTYIKELGKAIVKREGNSSQNWQRFYQLTKLLDSMHEVVENLLNYCFQTFLDKTMSIEFPEMLAEIITNQIPKYSNGNIKKLLFHQK

Experiments:
Hsp90a (wild-type Hsp90) [1] = target: T1, Hsp90a (wild-type Hsp90) (human, UniProt P07900 1-732); assay: cryo-EM structure
D93N Hsp90 = D93N Hsp90 (human, UniProt P07900 1-732, D93N); assay: pull-down
Hop = Hop (human, UniProt P31948 1-543); assay: pull-down
Hsp90a (wild-type Hsp90) [2] = target: T1, Hsp90a (wild-type Hsp90); assay: SEC
[3] = target: B1; assay: SEC

binding result (Hsp90a (wild-type Hsp90) [1]) | binding result (D93N Hsp90) | binding result (Hop) | binding result (Hsp90a (wild-type Hsp90) [2]) | binding result [3] | Binder
binds |  |  |  |  | MBP-tagged glucocorticoid receptor DNA binding domain, hinge and ligand binding domain (MBP-GR DBD-LBD, 418-777, F602S) (domain or fragment, UniProt P04150 418-777, looked up) PKLCLVCSDEASGCHYGVLTCGSCKVFFKRAVEGQHNYLCAGRNDCIIDKIRRKNCPACRYRKCLQAGMNLEARKTKKKIKGIQQATTGVSQETSENPGNKTIVPATLPQLTPTLVSLLEVIEPEVLYAGYDSSVPDSTWRIMTTLNMLGGRQVIAAVKWAKAIPGFRNLHLDDQMTLLQYSWMSLMAFALGWRSYRQSSANLLCFAPDLIINEQRMTLPCMYDQCKHMLYVSSELHRLQVSYEEYLCMKTLLLLSSVPKDGLKSQELFDEIRMTYIKELGKAIVKREGNSSQNWQRFYQLTKLLDSMHEVVENLLNYCFQTFLDKTMSIEFPEMLAEIITNQIPKYSNGNIKKLLFHQK
 | binds | binds | binds |  | B1
binds |  |  |  |  | CHIP E3 ubiquitin ligase (enzyme, human, UniProt Q9UNE7 1-303, looked up) MKGKEEKEGGARLGAGGGSPEKSPSAQELKEQGNRLFVGRKYPEAAACYGRAITRNPLVAVYYTNRALCYLKMQQHEQALADCRRALELDGQSVKAHFFLGQCQLEMESYDEAIANLQRAYSLAKEQRLNFGDDIPSALRIAKKKRWNSIEERRIHQESELHSYLSRLIAAERERELEECQRNHEGDEDDSHVRAQQACIEAKHDKYMADMDELFSQVDEKRKKRDIPDYLCGKISFELMREPCITPSGITYDRKDIEEHLQRVGHFDPVTRSPLTQEQLIPNLAMKEVIDAFISENGWVEDY
binds |  |  |  | binds | p23 (natural protein, human) MQPASAKWYDRRDYVFIEFCVEDSKDVNVNFEKSKLTFSCLGGSDNFKHLNEIDLFHCIDPNDSKHKRTDRSILCCLRKGESGQSWPRLTKERAKLNWLSVDFNNWKDWEDDSDEDMSNFDRFSEMMNNMGGDEDVDLPEVDGADDDSQDSDDEKMPDLE
